Results reported in article PMC1747184 (Nucleic Acids Research, 2006).

Molecular target: MutSα (MSH2–MSH6) (human (endogenous in HCT-116), UniProt P43246;P52701)
Assay: pull-down

Sequence of MutSα (MSH2–MSH6) (P43246 whole entry, chain 1 of 2): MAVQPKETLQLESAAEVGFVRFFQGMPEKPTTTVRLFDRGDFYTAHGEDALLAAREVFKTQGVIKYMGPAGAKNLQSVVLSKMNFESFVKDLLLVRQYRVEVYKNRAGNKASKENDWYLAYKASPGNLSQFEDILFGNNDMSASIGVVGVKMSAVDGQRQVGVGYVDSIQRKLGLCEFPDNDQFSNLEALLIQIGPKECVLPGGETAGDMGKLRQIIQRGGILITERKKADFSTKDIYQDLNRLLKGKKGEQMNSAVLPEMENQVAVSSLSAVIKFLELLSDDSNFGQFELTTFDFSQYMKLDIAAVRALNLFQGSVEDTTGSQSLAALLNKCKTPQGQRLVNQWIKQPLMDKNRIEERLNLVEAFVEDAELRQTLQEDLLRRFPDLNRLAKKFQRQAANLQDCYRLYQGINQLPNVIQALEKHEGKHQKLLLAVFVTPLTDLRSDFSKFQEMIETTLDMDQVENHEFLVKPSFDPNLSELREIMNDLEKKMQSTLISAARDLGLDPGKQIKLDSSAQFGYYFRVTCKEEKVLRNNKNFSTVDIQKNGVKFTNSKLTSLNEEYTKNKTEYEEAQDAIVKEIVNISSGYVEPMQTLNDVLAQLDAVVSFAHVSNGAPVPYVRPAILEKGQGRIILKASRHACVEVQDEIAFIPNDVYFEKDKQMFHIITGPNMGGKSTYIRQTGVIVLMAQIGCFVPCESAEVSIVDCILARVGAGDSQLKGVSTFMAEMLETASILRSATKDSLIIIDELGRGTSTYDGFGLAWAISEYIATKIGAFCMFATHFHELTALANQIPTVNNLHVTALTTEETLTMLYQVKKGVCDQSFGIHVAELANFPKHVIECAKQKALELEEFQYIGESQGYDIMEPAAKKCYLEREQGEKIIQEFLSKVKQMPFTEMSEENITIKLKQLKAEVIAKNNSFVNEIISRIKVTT
Sequence of MutSα (MSH2–MSH6) (P52701 whole entry, chain 2 of 2): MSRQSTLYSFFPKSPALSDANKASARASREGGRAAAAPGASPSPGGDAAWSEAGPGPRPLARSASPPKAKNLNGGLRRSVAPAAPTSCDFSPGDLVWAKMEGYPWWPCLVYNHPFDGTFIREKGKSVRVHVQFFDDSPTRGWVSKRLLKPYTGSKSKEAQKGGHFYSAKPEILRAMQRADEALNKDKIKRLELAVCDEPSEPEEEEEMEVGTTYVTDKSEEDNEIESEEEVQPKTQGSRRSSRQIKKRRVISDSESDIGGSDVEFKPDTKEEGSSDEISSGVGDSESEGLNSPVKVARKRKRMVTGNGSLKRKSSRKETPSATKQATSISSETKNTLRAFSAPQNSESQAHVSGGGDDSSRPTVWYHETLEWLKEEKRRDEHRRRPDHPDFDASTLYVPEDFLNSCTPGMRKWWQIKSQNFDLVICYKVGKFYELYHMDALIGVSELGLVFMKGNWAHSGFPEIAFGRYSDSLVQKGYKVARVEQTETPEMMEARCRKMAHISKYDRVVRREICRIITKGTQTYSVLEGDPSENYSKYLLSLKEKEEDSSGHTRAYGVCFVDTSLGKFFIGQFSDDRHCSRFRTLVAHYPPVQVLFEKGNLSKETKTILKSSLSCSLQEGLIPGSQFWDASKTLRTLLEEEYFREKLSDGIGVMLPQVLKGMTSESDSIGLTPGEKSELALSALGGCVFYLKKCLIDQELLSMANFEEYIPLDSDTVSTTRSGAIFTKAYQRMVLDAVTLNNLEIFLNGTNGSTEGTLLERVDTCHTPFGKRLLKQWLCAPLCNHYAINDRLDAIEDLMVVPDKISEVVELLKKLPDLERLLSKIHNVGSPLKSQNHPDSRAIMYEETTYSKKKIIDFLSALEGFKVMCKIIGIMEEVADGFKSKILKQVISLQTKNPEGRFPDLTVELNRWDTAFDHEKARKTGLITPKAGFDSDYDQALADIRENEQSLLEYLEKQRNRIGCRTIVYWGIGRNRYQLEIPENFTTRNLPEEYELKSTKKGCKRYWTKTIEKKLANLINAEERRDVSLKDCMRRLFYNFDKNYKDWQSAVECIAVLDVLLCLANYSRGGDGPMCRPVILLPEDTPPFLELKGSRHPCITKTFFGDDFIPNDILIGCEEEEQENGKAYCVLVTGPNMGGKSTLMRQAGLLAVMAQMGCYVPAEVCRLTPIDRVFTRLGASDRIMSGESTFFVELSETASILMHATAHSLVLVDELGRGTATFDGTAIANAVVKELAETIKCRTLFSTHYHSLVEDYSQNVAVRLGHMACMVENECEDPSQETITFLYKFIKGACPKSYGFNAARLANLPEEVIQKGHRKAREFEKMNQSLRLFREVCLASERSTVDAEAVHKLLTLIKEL

B1: MutLα^(MLH1 A128P) (complex)
chain 1: MSFVAGVIRRLDETVVNRIAAGEVIQRPANAIKEMIENCLDAKSTSIQVIVKEGGLKLIQIQDNGTGIRKEDLDIVCERFTTSKLQSFEDLASISTYGFRGEALASISHVAHVTITTKTADGKCAYRPSYSDGKLKAPPKPCAGNQGTQITVEDLFYNIATRRKALKNPSEEYGKILEVVGRYSVHNAGISFSVKKQGETVADVRTLPNASTVDNIRSIFGNAVSRELIEIGCEDKTLAFKMNGYISNANYSVKKCIFLLFINHRLVESTSLRKAIETVYAAYLPKNTHPFLYLSLEISPQNVDVNVHPTKHEVHFLHEESILERVQQHIESKLLGSNSSRMYFTQTLLPGLAGPSGEMVKSTTSLTSSSTSGSSDKVYAHQMVRTDSREQKLDAFLQPLSKPLSSQPQAIVTEDKTDISSGRARQQDEEMLELPAPAEVAAKNQSLEGDTTKGTSEMSEKRGPTSSNPRKRHREDSDVEMVEDDSRKEMTAACTPRRRIINLTSVLSLQEEINEQGHEVLREMLHNHSFVGCVNPQWALAQHQTKLYLLNTTKLSEELFYQILIYDFANFGVLRLSEPAPLFDLAMLALDSPESGWTEEDGPKEGLAEYIVEFLKKKAEMLADYFSLEIDEEGNLIGLPLLIDNYVPPLEGLPIFILRLATEVNWDEEKECFESLSKECAMFYSIRKQYISEESTLSGQQSEVPGSIPNSWKWTVEHIVYKALRSHILPPKHFTEDGNILQLANLPDLYKVFERC
chain 2: MERAESSSTEPAKAIKPIDRKSVHQICSGQVVLSLSTAVKELVENSLDAGATNIDLKLKDYGVDLIEVSDNGCGVEEENFEGLTLKHHTSKIQEFADLTQVETFGFRGEALSSLCALSDVTISTCHASAKVGTRLMFDHNGKIIQKTPYPRPRGTTVSVQQLFSTLPVRHKEFQRNIKKEYAKMVQVLHAYCIISAGIRVSCTNQLGQGKRQPVVCTGGSPSIKENIGSVFGQKQLQSLIPFVQLPPSDSVCEEYGLSCSDALHNLFYISGFISQCTHGVGRSSTDRQFFFINRRPCDPAKVCRLVNEVYHMYNRHQYPFVVLNISVDSECVDINVTPDKRQILLQEEKLLLAVLKTSLIGMFDSDVNKLNVSQQPLLDVEGNLIKMHAADLEKPMVEKQDQSPSLRTGEEKKDVSISRLREAFSLRHTTENKPHSPKTPEPRRSPLGQKRGMLSSSTSGAISDKGVLRPQKEAVSSSHGPSDPTDRAEVEKDSGHGSTSVDSEGFSIPDTGSHCSSEYAASSPGDRGSQEHVDSQEKAPKTDDSFSDVDCHSNQEDTGCKFRVLPQPTNLATPNTKRFKKEEILSSSDICQKLVNTQDMSASQVDVAVKINKKVVPLDFSMSSLAKRIKQLHHEAQQSEGEQNYRKFRAKICPGENQAAEDELRKEISKTMFAEMEIIGQFNLGFIITKLNEDIFIVDQHATDEKYNFEMLQQHTVLQGQRLIAPQTLNLTAVNEAVLIENLEIFRKNGFDFVIDENAPVTERAKLISLPTSKNWTFGPQDVDELIFMLSDSPGVMCRPSRVKQMFASRACRKSVMIGTALNTSEMKKLITHMGEMDHPWNCPHGRPTMRHIANLGVISQN
fold decrease of binding against wild-type MutLα: ~5 fold
